{"source": "paper PMC4073494", "key": {"[1]": {"biological_target": "purified full-length EED (AlphaScreen) (UniProt O75530)", "sequence (O75530 whole entry)": "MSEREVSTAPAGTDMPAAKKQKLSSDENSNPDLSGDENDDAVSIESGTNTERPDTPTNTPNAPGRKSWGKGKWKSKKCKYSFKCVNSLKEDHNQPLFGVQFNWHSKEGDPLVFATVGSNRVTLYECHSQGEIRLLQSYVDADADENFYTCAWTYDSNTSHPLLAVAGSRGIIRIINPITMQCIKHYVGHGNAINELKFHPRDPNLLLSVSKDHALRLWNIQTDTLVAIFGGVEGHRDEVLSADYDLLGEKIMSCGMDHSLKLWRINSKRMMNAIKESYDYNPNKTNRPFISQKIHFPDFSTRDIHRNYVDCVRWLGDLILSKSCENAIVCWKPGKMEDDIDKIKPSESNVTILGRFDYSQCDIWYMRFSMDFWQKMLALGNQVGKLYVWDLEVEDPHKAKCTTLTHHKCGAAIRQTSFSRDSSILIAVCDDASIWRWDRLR", "test": "AlphaScreen or HTRF"}, "EED (Homo sapiens)": {"biological_target": "EED (Homo sapiens) (UniProt O75530)", "sequence (O75530 2-441)": "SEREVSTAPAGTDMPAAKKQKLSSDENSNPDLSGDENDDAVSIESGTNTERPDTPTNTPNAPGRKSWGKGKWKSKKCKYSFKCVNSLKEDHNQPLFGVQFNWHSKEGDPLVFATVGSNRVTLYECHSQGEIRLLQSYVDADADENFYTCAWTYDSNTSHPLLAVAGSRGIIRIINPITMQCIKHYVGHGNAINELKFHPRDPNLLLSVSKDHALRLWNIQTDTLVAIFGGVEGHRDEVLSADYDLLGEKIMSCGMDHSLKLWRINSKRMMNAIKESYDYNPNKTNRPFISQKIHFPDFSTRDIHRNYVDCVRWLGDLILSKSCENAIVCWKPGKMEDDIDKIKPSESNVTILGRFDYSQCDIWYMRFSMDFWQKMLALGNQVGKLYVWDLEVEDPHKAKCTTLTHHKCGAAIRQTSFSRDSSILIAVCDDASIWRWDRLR", "conditions": "cited from earlier work"}}}
{"substance": "unlabeled full-length RING1B (from UniProt Q99496 1-336) (natural protein)", "values": [{"measurement": "EC50", "setting": "[1]", "value": 605, "unit": "nM"}]}
{"substance": "EZH2 39-68 (from UniProt Q15910)", "values": [{"measurement": "Kd", "setting": "EED (Homo sapiens)", "value": 380, "unit": "nM"}]}
